Measured values reported in patent publication US20110076298A1, “Soluble stabilized trimeric hiv env proteins and uses thereof” (priority 2006, published 2011).

What was measured:
[1] = Tween 20 aggregate conversion/collapse experiments, BN-PAGE; assay type: physicochemical; conditions: 0° C., room temperature, 37° C.
Method: FIGS. 6A-6D: Tween® 20 conversion experiments. (A) Dose response: Purified KNH1144 SOSIP R6 gp140 trimer was incubated with 0 (no detergent control), or 0.1, 0.05, 0.01, 0.001, or 0.0001% Tween® 20 and analyzed by BN-PAGE and Coomassie G-250 stain. Arrows point to HMW aggregate and trimer species. M stands for the 669 k thyroglobulin and 440 k ferritin molecular weight protein standards. (B) Time course: Purified KNH1144 SOSIP R6 gp140 trimer was incubated with Tween® 20 for 5 min (left panel) or 10 min (right panel). Trimer was either untreated (−lane) or Tween® 20 treated (+lane). Arrows indicate trimer and HMW aggregate bands. […]
Tween® 20 Dose effect: 1 ug of purified KNH1144 SOSIP R6 trimer was incubated with varying concentrations of Tween® 20 (polyoxyethylene sorbitan monolaurate) ranging from 0 to 0.0001% (v/v) and incubated for 1 hour at room temperature. Following incubation, samples were analyzed by BN-PAGE as described above. […]
Temperature dependance on Tween® 20 effect: To determine if temperature affected the ability of Tween® 20 to recover trimers from aggregates (i.e., collapse aggregate into trimer), 1 ug of purified KNH1144 SOSIP R6 trimer was incubated with Tween® 20 to a final concentration of 0.05% (v/v) at 0° C. […] Following the incubation, samples were analyzed by BN-PAGE and Coomassie staining. […]

[2] = system: 2G12, b6, b12, CD4-IgG2, HIVIg; test: Lectin ELISA antigenicity, untreated vs Tween 20 treated; assay type: binding; conditions: 0.05% Tween 20, lectin ELISA
Excerpt: FIG. 8: Effect of Tween® 20 treatment on KNH1144 SOSIP R6 HMW aggregate antigenicity. Lectin ELISA of untreated and Tween® 20 treated KNH1144 SOSIP R6 HMW aggregate: Untreated or Tween® 20-treated HMW aggregate were bound to GNA lectin coated ELISA plates and probed with 2G12, b6, b12, CD4-IgG2, and HIVIg. The panels represent their respective binding curves. Antibody affinity to the untreated HMW aggregate is represented by the curve having diamond lines. Affinity to the Tween® 20 treated HMW aggregate is represented by curve having square lines. The Y-axis represents the colorimetric signal at OD492 and the X-axis represents antibody concentration in [ug/ml]. Lectin ELISA of untreated and Tween® 20-treated KNH1144 SOSIP R6 gp140 trimer: Untreated or Tween® 20 treated trimer (containing 10-15% HMW aggregate) were bound to GNA lectin coated ELISA plates and probed with 2G12, b6, b12, and CD4-IgG2. The panels represent their respective binding curves. Antibody affinity to the untreated trimer is represented by the curve having diamond lines. Affinity to the Tween® 20 treated trimer is represented by the curve having square lines. The Y-axis represents the colorimetric signal at OD492 and the X-axis represents antibody concentration in [ug/ml].
ELISA plates were coated overnight at 4° C. with lentil lectin powder from Lens culinaris (L9267, Sigma) at 10 ug/ml concentration. […]

Substance: KNH1144 SOSIP R6 HMW aggregate: high molecular weight aggregate species of KNH1144 SOSIP R6 gp140, slower migrating on BN-PAGE
- temperature dependence of the Tween 20 effect [1]: temperature independent
- antibody binding, Tween 20 treated vs untreated [2]: increased binding
